Test results: patent publication US20250154240A1, “ANTI-HUMAN CXCL1 ANTIBODY” (CHIOME BIOSCIENCE INC., priority 2022, published 2025)

How the values were obtained:
HuCXCL2 [1] = target: T1, HuCXCL2 (Homo sapiens, UniProt P19875); test: ELISA, inhibition of binding of HuCXCL2 to GAG (heparin, heparan sulfate); assay type: biochemical; conditions: antibody 0 to 10 μg/mL; biotin-labeled heparin or heparan sulfate 10 μg/mL
T1 construct: purchased PROTEINTECH
T1 sequence (P19875 35-107): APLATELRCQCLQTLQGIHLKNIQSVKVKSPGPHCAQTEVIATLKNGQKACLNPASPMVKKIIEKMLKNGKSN
Method: (§1) Thus, the effect of Hu5A-5E11 on the binding of CXCLs to GAG was evaluated by ELISA assay using plates on which the antigen (HuCXCL1 protein) used for immunization or HuCXCL2, 3 and 5 and MsCXCL1 and 2 proteins had been directly immobilized. CXCLs other than HuCXCL1 were purchased from PROTEINTECH and used. Biotin-labeled heparan sulfate and heparin were purchased from PG Research and used.
(§2) To 96-well plates, phosphate-buffered saline (PBS) containing 3 μg/mL of HuCXCL1, 2, 3 or 5 or MsCXCL1 or 10 μg/mL of MsCXCL2 was added in a volume of 50 μL per well, and the plates were allowed to stand overnight at 4° C. After removal of the antigen solutions, PBS containing 0.05% Tween-20 (hereinafter referred to as the blocking solution) was added to each well for blocking reaction, and the plates were allowed to stand at room temperature for 30 minutes. […] TMB (Dako) was added as a chromogenic substrate solution to cause color development, and 1 N sulfuric acid was added to stop the reaction, followed by measurement of absorbance at 450 nm. The binding rate of CXCLs to GAG was calculated as a ratio relative to the absorbance measured in the absence of the antibody, which was set to 100%.

HuCXCL2 [2] = target: T1, HuCXCL2; test: FACS, inhibition of binding of APC-labeled HuCXCL2 to HEK293 cells forced to express HuCXCR2; assay type: cell-based; conditions: APC-labeled ligand 10 μg/mL; HEK293 cells expressing HuCXCR2
Method: (§3) Chemokines are stabilized by directly binding to GAG on the cell surface and thereby allow efficient signal transduction to their receptors. […] Then, to evaluate whether Hu5A-5E11 inhibits the binding of CXCLs to cells, the binding of fluorescently labeled CXCLs to cells was measured as fluorescence intensity by flow cytometry in FACS. For this purpose, HEK293 cells forced to express HuCXCR2 were used. For use as HuCXCL1, 2, 3 and 5 and MsCXCL1, the proteins in above were labeled with APC.
(§4) The cultured cells were detached and washed with PBS, and then suspended at 5.0× 10^5 cells/mL in PBS containing 1% BSA (hereinafter referred to as the FACS buffer). Each of the APC-labeled ligands and Hu5A-5E11 were mixed at final concentrations of 10 μg/mL and 16.7 μg/mL, respectively, and reacted at room temperature for 30 minutes, and then added to the cell suspension and reacted on ice for 30 minutes. After washing with the FACS buffer, the cells were suspended again in PBS containing 1% 7-AAD, 0.5% BSA and 2 mM EDTA, followed by the above flow cytometry to measure fluorescence intensity.

HuCXCL1 [3] = target: T2, HuCXCL1 (Homo sapiens, UniProt P09341); test: FACS, inhibition of binding of APC-labeled HuCXCL1 to HEK293 cells forced to express HuCXCR2; assay type: cell-based; conditions: APC-labeled ligand 10 μg/mL; HEK293 cells expressing HuCXCR2
T2 construct: made in house; host or cells: Expi293 expression system (transient), protein from the culture supernatant
T2 sequence (P09341 35-107): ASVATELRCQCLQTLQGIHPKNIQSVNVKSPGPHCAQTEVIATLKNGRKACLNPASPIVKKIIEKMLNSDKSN
Method: as §3, §4

HuCXCL3 = target: T3, HuCXCL3 (Homo sapiens, UniProt P19876); test: FACS, inhibition of binding of APC-labeled HuCXCL3 to HEK293 cells forced to express HuCXCR2; assay type: cell-based; conditions: APC-labeled ligand 10 μg/mL; HEK293 cells expressing HuCXCR2
T3 construct: purchased PROTEINTECH
T3 sequence (P19876 35-107): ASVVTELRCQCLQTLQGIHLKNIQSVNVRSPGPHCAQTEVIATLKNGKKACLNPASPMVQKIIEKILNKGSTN
Method: as §3, §4

HuCXCL1 [4] = target: T2, HuCXCL1; test: ELISA, inhibition of binding of HuCXCL1 to GAG (heparin, heparan sulfate); assay type: biochemical; conditions: antibody 0 to 10 μg/mL; biotin-labeled heparin or heparan sulfate 10 μg/mL
Method: as §1, §2

HuCXCL5 [5] = target: T4, HuCXCL5 (Homo sapiens, UniProt P42830); test: ELISA, inhibition of binding of HuCXCL5 to GAG (heparin, heparan sulfate); assay type: biochemical; set-up: purchased PROTEINTECH; conditions: antibody 0 to 10 μg/mL; biotin-labeled heparin or heparan sulfate 10 μg/mL
T4 sequence (P42830 37-114): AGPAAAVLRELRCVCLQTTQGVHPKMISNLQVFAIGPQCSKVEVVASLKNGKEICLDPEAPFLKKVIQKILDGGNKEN
Method: as §1, §2

HuCXCL5 [6] = target: T4, HuCXCL5; test: FACS, inhibition of binding of APC-labeled HuCXCL5 to HEK293 cells forced to express HuCXCR2; assay type: cell-based; set-up: purchased PROTEINTECH; host or cells: CXCR2: transfected HEK293 cells; conditions: APC-labeled ligand 10 μg/mL; HEK293 cells expressing HuCXCR2
Method: as §3, §4

B1: Hu5A-5E11: humanized antibody VH1/VL1; VH SEQ ID NO: 76, VL SEQ ID NO: 78 (antibody, V domains shown)
VH: QVQLVQSGAEVKKPGSSVKVSCKASGYAFSDYWMNWVRQAPGQGLEWIGQIYPGSGDTNYNAKFKGKGTITADKSTSTAYMELSSLRSEDTAVYYCARERDYDVAMDYWGQGTTVTVSS
VL: DIQMTQSPSSLSASVGDRVTITCKASQDINKYIAWFQQKPGKAPKLVIHYTSILQPGVPSRFSGSGSGTDYTFTISSLQPEDIATYYCLQYDNLPWTFGGGTKVEIK
Inhibitory activity against the binding of HuCXCL2 to GAG (HuCXCL2 [1]): inhibit the binding of HuCXCL1, 2, 3 and 5 and MsCXCL1 to GAG in an antibody concentration-dependent manner
Inhibitory activity against the binding of HuCXCL2 to cells (fluorescence intensity) (HuCXCL2 [2]): reduce the fluorescence intensity of the cells in an antibody concentration-dependent manner
Inhibitory activity against the binding of HuCXCL1 to cells (fluorescence intensity) (HuCXCL1 [3]): reduce the fluorescence intensity of the cells in an antibody concentration-dependent manner
Inhibitory activity against the binding of HuCXCL3 to cells (fluorescence intensity) (HuCXCL3): reduce the fluorescence intensity of the cells in an antibody concentration-dependent manner
Inhibitory activity against the binding of HuCXCL1 to GAG (HuCXCL1 [4]): inhibit the binding of HuCXCL1, 2, 3 and 5 and MsCXCL1 to GAG in an antibody concentration-dependent manner
Inhibitory activity against the binding of HuCXCL5 to GAG (HuCXCL5 [5]): inhibit the binding of HuCXCL1, 2, 3 and 5 and MsCXCL1 to GAG in an antibody concentration-dependent manner
Inhibitory activity against the binding of HuCXCL5 to cells (fluorescence intensity) (HuCXCL5 [6]): reduce the fluorescence intensity of the cells in an antibody concentration-dependent manner
